We go through one molecule from patent publication US20230414752A1.

The target of this experiment is human EpCAM (human) (UniProt P16422). The experiment in a line: binding affinity, method not stated.

In general, Kd refers to a measure of binding affinity in units of concentration. A higher Kd goes with lower affinity.

Sequence of UniProt P16422 (P16422 24-265 limits assumed): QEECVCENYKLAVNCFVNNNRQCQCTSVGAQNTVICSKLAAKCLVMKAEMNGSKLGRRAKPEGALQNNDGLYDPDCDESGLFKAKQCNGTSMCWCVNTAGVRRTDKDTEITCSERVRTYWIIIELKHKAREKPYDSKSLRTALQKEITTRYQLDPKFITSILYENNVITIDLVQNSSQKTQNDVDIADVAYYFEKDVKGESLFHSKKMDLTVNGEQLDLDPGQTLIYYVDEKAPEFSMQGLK

B1: hVIB-13 (VHH)
VHH: QVQLVESGGGLVQPGGSLTLSCAASGTGSIFSINLMGWYRQAPGKQRELVARITSGDSTVYADSVKGRFTISRDNSKNTLYLQMNSLRPEDTAVYYCNLLLRSSPGATTPYWGQGTLVTVSS
The molecule B1 gave a Kd of 2.8 nM.
